Molecular target: T1, FLAG-ubiquitin, recombinant (UniProt P0CG47 1-76)
T1 construct: ubiquitin, the cut product of a ubiquitin precursor; source: bought: Boston Biochem
Assay: SPR; Biacore 3000, 25°C; FLAG-ubiquitin immobilised on CM-5 chip by amine cross-linking; increasing amounts of GST-ING1 injected; blank reference subtracted; three experiments; steady-state affinity and kinetic data
Settings: both partners purified

Kd: ~100 nM
B1: GST-ING1b, full length, recombinant (natural protein, human, UniProt Q9UK53-2 1-279, looked up)
chain: MLSPANGEQLHLVNYVEDYLDSIESLPFDLQRNVSLMREIDAKYQEILKELDECYERFSRETDGAQKRRMLHCVQRALIRSQELGDEKIQIVSQMVELVENRTRQVDSHVELFEAQQELGDTAGNSGKAGADRPKGEAAAQADKPNSKRSRRQRNNENRENASSNHDHDDGASGTPKEKKAKTSKKKKRSKAKAEREASPADLPIDPNEPTYCLCNQVSYGEMIGCDNDECPIEWFHFSCVGLNHKPKGKWYCPKCRGENEKTMDKALEKSKKERAYNR
notes: ING1 isoform p33ING1b, full length
